Results published in US20170082609A1.

How the values were obtained:
[1] = biological target: CDHR3 Cys529→Tyr variant (human) (UniProt Q6ZTQ4); assay: virus bound to HeLa-E8 monolayers, viral RNA by real-time PCR
[2] = biological target: CDHR3 Cys529→Tyr variant (human) (UniProt Q6ZTQ4); assay: virus bound to HeLa-E8 cells 2 h p.i., viral RNA by real-time PCR
[3] = biological target: CDHR3 Cys529→Tyr variant (human) (UniProt Q6ZTQ4); assay: cell-based or functional assay

UniProt Q6ZTQ4, sequence (Q6ZTQ4 other isoform, or with tags, fused parts or gaps mutant): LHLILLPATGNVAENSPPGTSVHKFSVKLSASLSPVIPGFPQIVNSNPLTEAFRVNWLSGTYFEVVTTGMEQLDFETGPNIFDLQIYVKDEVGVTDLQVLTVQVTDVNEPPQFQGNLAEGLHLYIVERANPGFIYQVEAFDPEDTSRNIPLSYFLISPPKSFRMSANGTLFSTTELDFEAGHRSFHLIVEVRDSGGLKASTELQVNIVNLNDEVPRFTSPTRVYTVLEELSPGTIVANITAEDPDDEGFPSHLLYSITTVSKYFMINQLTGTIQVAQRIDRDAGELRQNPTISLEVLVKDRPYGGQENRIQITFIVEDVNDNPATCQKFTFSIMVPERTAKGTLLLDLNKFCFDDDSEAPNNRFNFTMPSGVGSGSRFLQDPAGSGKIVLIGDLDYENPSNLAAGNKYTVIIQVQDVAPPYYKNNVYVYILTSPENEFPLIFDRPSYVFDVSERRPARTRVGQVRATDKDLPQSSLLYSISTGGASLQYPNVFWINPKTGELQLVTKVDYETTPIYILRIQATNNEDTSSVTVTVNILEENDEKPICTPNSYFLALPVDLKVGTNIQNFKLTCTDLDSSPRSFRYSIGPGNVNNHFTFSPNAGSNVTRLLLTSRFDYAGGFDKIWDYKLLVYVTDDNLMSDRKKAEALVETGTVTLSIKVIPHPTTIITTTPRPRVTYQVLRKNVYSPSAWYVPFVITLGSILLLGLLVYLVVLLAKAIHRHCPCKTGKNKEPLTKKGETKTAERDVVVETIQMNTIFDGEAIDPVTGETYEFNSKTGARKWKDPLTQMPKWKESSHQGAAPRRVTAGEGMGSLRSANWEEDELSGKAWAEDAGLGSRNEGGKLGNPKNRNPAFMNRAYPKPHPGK

In the case of HeLa-E8 adapted RV-C15 (RV-C15a), the fold increase of virus binding against the parental isolate [1] is reported as over 10 fold, the binding compared to that of RV-C15-wt [2] is reported as over 1 log and the replication in HeLa-E8 compared to control HeLa cells (orders of magnitude) [3] is reported as 2.
